Publication PMC8539749 (Viruses, 2021)
“And” between values parts separate entries of the source, which are not always exact repeats. Identical values can stand only once. No end group written: not given here.

Molecular target: Recombinant Gn (residues 21–452) of the SFTSV membrane glycoprotein polyprotein (severe fever with thrombocytopenia syndrome virus)
Experiment: ELISA

B1: Biotinylated HKU-P1 (peptide)
peptide: KKRGFGS
modifications: not fully specified
binding affinity: 700 µg/mL
signal over background at 250 µg/mL (fold): 2 fold and 3 fold
